This is an account of results in patent US20100196398A1 (AstraZeneca / MedImmune, published 2010).

Test [1] deals with T1, human CD105 (human, UniProt P17813 26-658).
T1 construct: whole, on cells; Target as carried by HUVEC cells in the FACS assays; also called endoglin; END
T1 sequence (looked up): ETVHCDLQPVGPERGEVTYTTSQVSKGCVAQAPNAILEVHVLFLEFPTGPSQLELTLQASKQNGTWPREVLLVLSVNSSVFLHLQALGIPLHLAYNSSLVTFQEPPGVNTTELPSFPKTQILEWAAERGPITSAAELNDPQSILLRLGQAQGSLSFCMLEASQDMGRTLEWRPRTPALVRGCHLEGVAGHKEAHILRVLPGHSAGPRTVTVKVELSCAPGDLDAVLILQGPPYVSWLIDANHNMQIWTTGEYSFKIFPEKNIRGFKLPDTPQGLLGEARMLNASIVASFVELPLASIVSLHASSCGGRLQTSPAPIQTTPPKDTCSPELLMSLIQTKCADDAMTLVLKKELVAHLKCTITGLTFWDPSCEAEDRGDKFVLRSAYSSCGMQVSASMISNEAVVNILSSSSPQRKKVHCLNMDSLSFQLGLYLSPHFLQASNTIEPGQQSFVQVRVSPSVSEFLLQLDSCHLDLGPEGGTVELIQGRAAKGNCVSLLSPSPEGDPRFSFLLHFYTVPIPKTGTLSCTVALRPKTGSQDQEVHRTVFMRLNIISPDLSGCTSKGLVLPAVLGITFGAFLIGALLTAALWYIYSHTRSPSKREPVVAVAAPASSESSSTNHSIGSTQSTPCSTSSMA
The experiment in a line: FACS KD determination on HUVEC cells, 4° C., nonlinear fit of geometric mean fluorescence.
Method: The affinity of the anti-CD105 antibodies was determined by FACS. […] Cells were kept on ice. Purified antibodies were serially diluted in filtered 1×PBS (2×) across 11 wells in 96-well plates. The twelfth well in each row contained buffer only. Cells and 1×PBS were added to each mAb well such that the final volume was 30 μL/well and each well contained approximately 100,000 cells. Plates were placed on a plate shaker for 3 hours at 4° C., then spun and washed 3 times with PBS. A fluorochrome-labeled secondary goat α-human polyclonal antibody was added to each well in a 200 μL volume. Plates were then incubated for 40 minutes at 4° C., then spun and washed 3 times with PBS.
The Geometric Mean Fluorescence (GMF) of 10,000 cells for each mAb concentration was determined using a FACSCalibur instrument. A nonlinear plot of GMF as a function of molecular mAb concentration was fit using Scientist software using the equation:
In the above equation, F=Geometric mean fluorescence, LT=total molecular mAb concentration, P′=proportionality constant that relates arbitrary fluorescence units to bound mAb, and KD=equilibrium dissociation constant. For each mAb an estimate for KD was obtained as P′ and KD were allowed to float freely in the nonlinear analysis.

For test [2], the target named is T1, human CD105. As to the kind of experiment: FACS competition on HUVEC cells: unlabeled mAb at 50 ug/ml, wash, then FITC-labeled SN6 at 2 ug/ml; blocked antibody: SN6.

B1: fully human monoclonal antibody 10C9 (antibody, V domains shown)
VH: QVQLVESGGGVVQPGRSLRLSCAASGFTFRSYGMHWVRQAPGKGLEWVAVIWYDGSNKYYADSVKGRFTISRDNSKNTLDLQMNSLRAEDTAVYYCARDRIAAARYYNGMDVWGQGTTVTVSS
VL: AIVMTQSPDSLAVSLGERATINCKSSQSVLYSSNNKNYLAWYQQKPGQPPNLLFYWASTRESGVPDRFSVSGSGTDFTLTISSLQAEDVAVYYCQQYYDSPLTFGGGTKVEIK
notes: XenoMouse hybridoma antibody of Campaign 2 (IgG2 and IgG4 strains); also called 10C9.2
In the test with human CD105 [1], B1 had a Kd of under 0.748 nM. For the same molecule, the “Max % Bloc(king) of SN6 binding” value with human CD105 [2] is 9%.

B2: fully human monoclonal antibody 11H2 (antibody, V domains shown)
VH: QVQLVESGGGVVQPGRSLRLSCAASGFSFSSYGMHWVRQAPGKGLDWVAIIWYDGSYKYYADSVKGRFTISRDNSKNTLSLQMNSLRAEDTAVYYCARDGKYPFDYWGQGTLVTVSS
VL: SYVLTQPPSVSVAPGQTARITCGGNNIGSKSVHWYQQKPGQAPVLVVYDDSDRPSGIPERFSGSNSGNTATLTISRVEAGDEADYYCQVWDRSSDHVVFGGGTKLTVL
notes: XenoMouse hybridoma antibody of Campaign 2 (IgG2 and IgG4 strains); also called 11H2.1
Molecule B2 yielded a Kd in the test with human CD105 [1] of 0.338 nM. Moreover, in the test with human CD105 [2], the “Max % Bloc(king) of SN6 binding” value stood at 29.4%.

B3: fully human monoclonal antibody 9H10 (antibody, V domains shown)
VH: QVQLVESGGGVVQPGRSLRLSCAASGFAFINYGMHWVRQAPGKGLDWVAVISYDGSNKYYTDSVKGRFTISRDNSKNTLYLQMNSLRAEDTAVYYCARDLMGATLFDNWGQGTLVTVSS
VL: SYVLTQPPSVSVAPGQTARISCGGNNIGSKSVHWFQQKPGQAPVLVVYDDSDRPSGIPERFSGSNSGNTATLTISRVEAGDEADYYCQVWDSSSDHVVFGGGTKLTVL
notes: XenoMouse hybridoma antibody of Campaign 2 (IgG2 and IgG4 strains immunised with B300.19/human CD105 cells); also called 9H10.2
The molecule B3 came in with a Kd in the test with human CD105 [1] of under 0.584 nM. In addition, the “Max % Bloc(king) of SN6 binding” value with human CD105 [2] turned out to be 81.9%.

B4: fully human monoclonal antibody 6B10 (antibody, V domains shown)
VH: QEQLVESGGGVVQPGRSLRLSCTASGFTFSNYGIHWVRQAPGKGLEWVTVISYDGSKKYYADSVKGRFTISRDNSKNTLYLQMNSLRAEDTAVYYCARAFSTMVRGVDHWGQGTLVTVSS
VL: DIQMTQSPSSLSASVGDRVTITCQASQDIYKSLNWYQQRPGKAPNLLIYDASNLETGVPSRFSGSGSGTDFTFTISSLQPEDFARYFCQQYDNLPLTFGGGTRVEIK
notes: XenoMouse hybridoma antibody of Campaign 2 (IgG2 and IgG4 strains); also called 6B10.1; mAb 6B10
In the test with human CD105 [1], B4 yielded a Kd of under 0.149 nM. Moreover, the “Max % Bloc(king) of SN6 binding” value in the test with human CD105 [2] was 96.9%.

B5: fully human monoclonal antibody 4.120 (antibody, V domains shown)
VH: QVQLQESGPGLVKPSETLSLTCTVSGGSISSYYWSWIRQPAGKGLEWIGRIYTSGSTNYNPSLKSRVTMSVDTSKNQFSLKLSSVTAADTAVYYCARRDIGATIKGFDYWGQGTLVTVSS
VL: not shown
notes: XenoMouse hybridoma antibody of Campaign 1 (IgG1 and IgG4 strains immunised with soluble CD105); also called mAb 4.120
B5 gave a Kd in the test with human CD105 [1] of 0.77 nM. Moreover, in the test with human CD105 [2], the “Max % Bloc(king) of SN6 binding” value stood at 29.4%.

B6: fully human monoclonal antibody 6B1 (antibody, V domains shown)
VH: QVQLVESGGGVVQPGRSLRLSCAASGFTFSSYGMHWVRQAPGKGLEWVAVIWYDGSNKYYADSVKGRFTISRDNSKNTLYLQMNSLRAEDTAVYYCVRDYSSGWYWGQGTLVTVSS
VL: SYELTQPPSVSVSPGQTARITCSGDALPKKYAYWYQQKSGQAPVLVIYEDSKRPSGIPERFSGSSSGTMATLTISGAQVEDEADYSCYSIDSSVNHVVFGGGTKLTVL
notes: XenoMouse hybridoma antibody of Campaign 2 (IgG2 and IgG4 strains); also called 6B1.1
For B6, the Kd with human CD105 [1] stood at 2.3 nM. The “Max % Bloc(king) of SN6 binding” value in the test with human CD105 [2] came out at 20.5%.

B7: fully human monoclonal antibody 6A6 (antibody, V domains shown)
VH: EVQLLESGGGLVQPGGSLRLSCAASGFTFSSYAMSWVRQAPGKGLEWVSTISGGGHSTYYADSVKGRFTISRDNSKNTLYLQMNSLRAEDTAVYYCARIAPAGPHFDYWGQGTLVTVSS
VL: NFMLTQPHSVSESPGKTVTFSCTRSSGSIASNFVQWYQQRPGSSPTTVIYEHNQRPSGVPDRFSGSIDSSSSSASLTISGLKTEDEADYYCQFYDRNSHWVFGGGTKLTVL
notes: XenoMouse hybridoma antibody of Campaign 2 (IgG2 and IgG4 strains); also called 6A6.2
In the test with human CD105 [1], B7 yielded a Kd of under 1.15 nM. Also, in the test with human CD105 [2], the “Max % Bloc(king) of SN6 binding” value is 95.4%.

B8: fully human monoclonal antibody 4D4 (antibody, V domains shown)
VH: QVQLVESGGGVVQPGRSLRLSCAASGFTFSSYGMHWVRQAPGKGLEWVAVIWYDGSNKYYADSVKGRFTISRDNSKNTLYLQMNSLRAEDTAVYYCARVLGATGGYYYYYGMDVWGQGTTVTVSS
VL: not shown
notes: XenoMouse hybridoma antibody of Campaign 2 (IgG2 and IgG4 strains); also called 4D4.1
In turn, B8 came in with a Kd with human CD105 [1] of 0.622 nM. Also, the “Max % Bloc(king) of SN6 binding” value with human CD105 [2] came out at 5.1%.

B9: fully human monoclonal antibody 4.37 (antibody, V domains shown)
VH: QVQLVESGGGVVQPGRSLRLSCAASGFTFSDYGMHWVRQAPGKGLEWVAVIWYDGSNKYYADSVKGRFTISRDNSKNTLYLQMNSLRAEDTAVYYCARAAGFYYYYGMDVWGQGTTVTVSS
VL: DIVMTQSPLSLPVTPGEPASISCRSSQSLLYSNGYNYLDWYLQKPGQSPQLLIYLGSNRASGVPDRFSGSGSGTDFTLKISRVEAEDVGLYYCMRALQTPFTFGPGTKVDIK
notes: XenoMouse hybridoma antibody of Campaign 1 (IgG1 and IgG4 strains immunised with soluble CD105); also called mAb 4.37; 4.37κ
In the test with human CD105 [1], B9 registered a Kd of under 0.717 nM. In the test with human CD105 [2], the “Max % Bloc(king) of SN6 binding” value was found to be 57%.
